According to patent US20190367619A1 (ARGENX, published 2019):
Where a chain is given by its changes, count along the chain named.

T1: cynomolgus galectin-10-His, YRT isoform (cynomolgus)
T1 construct: not shown: His tag
T1 chain: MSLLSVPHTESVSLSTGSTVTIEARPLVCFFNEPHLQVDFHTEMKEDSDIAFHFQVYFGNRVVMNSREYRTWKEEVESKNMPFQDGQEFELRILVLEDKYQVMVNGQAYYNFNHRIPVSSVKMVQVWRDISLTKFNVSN

T2: human galectin-10-His (human)
T2 construct: Whether the last M of the tag is the start Met of galectin-10 is not clear; also called human Gal10-HIS; humanGal10-His
T2 chain: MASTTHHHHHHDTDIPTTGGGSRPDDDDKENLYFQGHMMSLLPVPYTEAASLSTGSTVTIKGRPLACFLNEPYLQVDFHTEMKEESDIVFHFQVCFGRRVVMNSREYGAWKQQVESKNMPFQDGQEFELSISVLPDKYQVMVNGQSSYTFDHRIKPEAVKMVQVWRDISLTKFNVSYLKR

T3: cynomolgus galectin-10-His, WGS isoform (cynomolgus)
T3 construct: not shown: His tag
T3 chain: T1 chain with E23K, A24G, F31L, Y69F, R70K, T71I, R92S

T4: human galectin-10 as coated in ELISA (soluble galectin-10; tag not given) (human, UniProt Q05315 1-142, limits assumed)
T4 construct: also called coated galectin-10; Gal10
T4 sequence: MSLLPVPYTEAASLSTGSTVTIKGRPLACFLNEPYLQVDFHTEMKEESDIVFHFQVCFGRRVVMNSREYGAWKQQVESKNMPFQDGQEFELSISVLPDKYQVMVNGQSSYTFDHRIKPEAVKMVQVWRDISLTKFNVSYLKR

B1: VHH clone 13C07 (VHH)
VHH: QLQVVESGGGLVQAGGSLRLSCAASSSAYSMAWFRQAPGKEREFVAAITWSGGSHHDDSVKGRFTISRDGAKNTVYLQMNSLKPEDTAVYYCAVGTLYSFSYRDYDYWGQGTQVTVSS
notes: Purified VHH-Myc-His from E. coli; not shown: Myc and His tags of the phagemid vector
B2: VHH clone 13G12 (VHH)
VHH: B1 VHH with A32G, A47V, T49S, H56Y, S101R
notes: as for B1
B3: VHH clone 13C10 (VHH)
VHH: QLQLVESGGGLVQAGGSLKLSCAASGRTFNPYTMGWFRQAPGKEREFVAVVSSGGGTYYANSVKGRFTISRDNAKATVYLQMNSLKPEDTAVYYCAAGSIFRWSPMSYDYWGQGTQVTVSS
notes: as for B1
B4: VHH clone 13A05 (VHH)
VHH: QVQLVESGGGLVQAGGSLRLSCAASSSSYSMSWFRQAPGKEREFVAIISWSGGTYYDDSVKGRFTVSRDNAKNTVYLQMNSLKPEDTAVYYCAAGTQFSFSYREYDYWGQGTQVTVSS
notes: as for B1
B5: VHH clone 13C06 (VHH)
VHH: B4 VHH with V2L, S32G, I47T, T54F, Q97R, D106H
notes: as for B1
B6: scFv 4H10 (periplasmic extract, Myc-tagged) (scFv, not shown: small tags and cut ends)
scFv: QVQLVESGGGLVQPGGSLRLSCAASGFTFDDYAMSWVRQAPGKGLEWVSAISWNGGSTYYAESMKGRFTISRDNAKNTLYLQMNSLKSEDAAVYYCAKDLSASGSYYHTFGSWGQGTQVTVSSGGGGSGGGGSGGGGSQAGLTQPPSVAGTLGKTVTISCAGTSSDVGYGDYVSWYQHIPGTAPKLLIYKVKTRASGIPDRFSGSKSGNTASLTISGLQSGDESDYYCASYKNGGTAVFGGGTHLTVL
B7: scFv 3A03 (periplasmic extract, Myc-tagged) (scFv, not shown: small tags and cut ends)
scFv: QVQLVESGGGLVQPGGSLRLSCATSGFTFSVYAMSWVRQAPGKGLEWVADINTSGDSTTYADSVKGRFTISRDNAKNTLYLQMNSLKPEDTAVYYCANRYTQERGQGTQVTVSSGGGGSGGGGSGGGGSDVVLTQTPGSLSVVPGEAASISCKPGRTLVHTDGRTYLYWLQQKPGQRPQLLIYQVSNRGSGVPDRFTGSGSGTDFTLKISGVKAEDAGVYYCAQATYYPLTFGSGTRLEIK
B8: scFv 4G05 (periplasmic extract, Myc-tagged) (scFv, not shown: small tags and cut ends)
scFv: QLQVVESGGGLVQTGGSLTLSCTTSGFTFSRYWMIWVRQAPGKGLEWVSSIYNDGGNTYYADSVKGRFTISRDNSENTLYLQMNSLKSEDTAVYYCAKLKAAYYGMDYWGKGTLVTVSSGGGGSGGGGSGGGGSSSALTQPSAVSVSLGQTARITCQGANLGRYYGIWYQQKPGQAPVQVIYGDSNRPSGIPERFSGSSSGGTATLTISGAQAEDEADYYCQSYESSTSPVFGGGTHLTVL
B9: scFv 4B10 (periplasmic extract, Myc-tagged) (scFv, not shown: small tags and cut ends)
scFv: QLQLVESGGGLVQPGGSLRLSCAASGFTFSNYWMYWVRQAPGKGLEWVSAIDVGGGTTDYAGSVKGRFTISRDNTKSTVYLQMNTLKPEDTALYYCLRGGSYYGGMDYWGKGTLVTVSSGGGGSGGGGSGGGGSQSALTQPSAVSVSLGQTARITCQGAKLGRYYGIWYQQKPGQAPVQVIYGDSNRPSGIPERFSGSSSGGTATLTISGAQAEDEADYYCQSYESSTSPVFGGGTHLTVL

Target: T1, cynomolgus galectin-10-His, YRT isoform
Experiment: ELISA, Gal10-His coated at 1 ug/mL, VHH titrated, anti-Myc-HRP
Procedure: (§1) The binding capacity of the 15 VHH clones was analysed by ELISA. Briefly, a Maxisorp plate was coated overnight with human or cynomolgus WGS or YRT isoforms galectin-10-His at 1 μg/mL and blocked with PBS 1% casein, before being incubated with a serial dilution of the VHH (from 4 μM, dilution 1/3, 12 points of dilutions). […] Absorbance was measured at 450 nm (reference at 620 nm) with Tecan instrument. Finally, the raw data (OD values) were plotted on GraphPad Prism 7.01. […] As a positive control, clone 1D06 from the previous human specific panel was included.

| Binder | Bmax (OD values) [OD] | EC50 [nM] |
| --- | --- | --- |
| B1 | 2.8 | 33.2 |
| B2 | 3.1 | 3.1 |
| B3 | 2.7 | 186 |
| B4 | 2.9 | 66.3 |
| B5 | 2.9 | 16.2 |

Target: T2, human galectin-10-His
Experiment: as above
Procedure: as §1

| Binder | Bmax (OD values) [OD] | EC50 [nM] |
| --- | --- | --- |
| B1 | 1.3 | 107 |
| B2 | 1.6 | 141 |
| B3 | 1 | – |
| B4 | 1.8 | 69.7 |
| B5 | 2.8 | 27.5 |

Target: T3, cynomolgus galectin-10-His, WGS isoform
Experiment: as above
Procedure: as §1

| Binder | Bmax (OD values) [OD] | EC50 [nM] |
| --- | --- | --- |
| B1 | 2.9 | 7.1 |
| B2 | 2.9 | 11.8 |
| B3 | 2.3 | – |
| B4 | 2.7 | 77.8 |
| B5 | 2.9 | 10.3 |

Target: T4, human galectin-10 as coated in ELISA …
Experiment: ELISA, scFv periplasmic extract on coated soluble galectin-10, anti-Myc-HRP
Procedure: In order to test the binding capacity of the scFvs to galectin-10, an ELISA binding assay was established. Briefly, a Maxisorp plate was coated with soluble galectin-10 (1 μg/mL), then blocked with casein, before being incubated with the periplasmic extract (dilution 1/5 in PBS) containing the scFv-Myc. Detection of the binder was carried out with an anti-Myc-HRP antibody. Absorbance was measured at 450 nm (reference at 620 nm) with Tecan instrument. A significant number of galectin-10 scFv binders were isolated after the second round of selection (45-87% of binders).

| Binder | PERI-ELISA binding (OD values) [OD] |
| --- | --- |
| B6 | 3.48 |
| B7 | 3.4 |
| B8 | 3.8 |
| B9 | 2.44 |
